One molecule from article PMC2706832 can be followed below.

Where only a bound is given, the exact number is not on record here.

For the experiment, the target named is wild-type CCR1 expressed on HEK293 cells (human) (UniProt P32246).
Sequence of wild-type CCR1 expressed on HEK293 cells (human) (P32246 whole entry): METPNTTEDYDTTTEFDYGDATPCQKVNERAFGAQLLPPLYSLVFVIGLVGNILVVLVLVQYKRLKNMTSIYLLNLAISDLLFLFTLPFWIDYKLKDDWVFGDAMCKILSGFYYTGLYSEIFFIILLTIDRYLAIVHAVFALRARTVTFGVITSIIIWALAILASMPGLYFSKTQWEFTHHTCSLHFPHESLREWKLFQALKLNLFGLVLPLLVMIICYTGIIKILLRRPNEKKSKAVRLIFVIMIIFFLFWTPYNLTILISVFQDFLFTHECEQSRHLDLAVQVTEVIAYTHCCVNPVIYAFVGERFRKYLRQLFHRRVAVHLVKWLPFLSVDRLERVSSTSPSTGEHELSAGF

B1: CCL14 full length (1-74) (ligand)
chain: TKTESSSRGPYHPSECCFTYTTYKIPRQRIMDYYETNSQCSKPGIVFITKRGHSVCTNPSDKWVQDYIKDMKEN
For B1, the EC50 for calcium flux in CCR1-transfected HEK293 cells is above 1000 nM.
